Assay [1] deals with FAPα on FAPα+ fibroblasts (human) (UniProt Q12884). Description: flow cytometry on BJ fibroblasts, anti-human Fc secondary antibody, % IgG bound cells. (In flow cytometry, cells or beads pass a laser one at a time.)
Assay [2] has as its target Recombinant human FAPα (human) (UniProt Q12884). Kind of assay: SPR (Reichert 4SPR), antibody on Protein A chip, antigen flown over.
The target in assay [3] is OX40 on activated CD4 T-cells. Kind of assay: flow cytometry on anti-CD3/anti-CD28-activated CD4 T-cells, anti-human IgG secondary antibody, % cells bound IgG.
Chain of OX40 on activated CD4 T-cells (chain, as listed by the source limits assumed): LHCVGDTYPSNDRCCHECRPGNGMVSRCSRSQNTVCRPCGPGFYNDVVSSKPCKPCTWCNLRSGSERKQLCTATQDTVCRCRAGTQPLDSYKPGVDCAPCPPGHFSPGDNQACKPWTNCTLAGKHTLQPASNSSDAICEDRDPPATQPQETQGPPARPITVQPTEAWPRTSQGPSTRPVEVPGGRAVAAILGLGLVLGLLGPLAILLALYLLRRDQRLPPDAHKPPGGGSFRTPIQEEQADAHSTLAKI
The target of assay [4] is Recombinant human OX40 (human) (UniProt P43489). Description: SPR (Reichert 4SPR), antibody on Protein A chip, antigen flown over.
Chain of Recombinant human OX40 (human) (P43489 29-216 limits assumed): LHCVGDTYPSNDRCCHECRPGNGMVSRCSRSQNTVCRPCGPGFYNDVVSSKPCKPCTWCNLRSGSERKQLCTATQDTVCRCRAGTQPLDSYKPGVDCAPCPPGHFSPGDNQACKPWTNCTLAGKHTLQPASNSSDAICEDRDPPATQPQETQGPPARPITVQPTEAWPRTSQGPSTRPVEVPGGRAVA
Assay [5] deals with PD-1 on activated CD4 and CD8 T-cells. Description: flow cytometry on anti-CD3/anti-CD28-activated CD8 T-cells, anti-human IgG secondary antibody, % cells bound IgG.
Chain of PD-1 on activated CD4 and CD8 T-cells (chain, as listed by the source limits assumed): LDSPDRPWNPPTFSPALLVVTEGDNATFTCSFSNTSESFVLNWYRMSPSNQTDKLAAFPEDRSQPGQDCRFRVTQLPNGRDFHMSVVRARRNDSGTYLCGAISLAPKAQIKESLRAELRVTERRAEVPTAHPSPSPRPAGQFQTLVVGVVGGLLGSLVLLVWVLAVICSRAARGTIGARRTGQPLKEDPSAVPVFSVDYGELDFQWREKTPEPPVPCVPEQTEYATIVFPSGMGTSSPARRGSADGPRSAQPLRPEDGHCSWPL
Assay [6] has the same target. Kind of assay: flow cytometry on anti-CD3/anti-CD28-activated CD4 T-cells, anti-human IgG secondary antibody, % cells bound IgG.
In assay [7] the target is TIGIT on Vδ1 γδ T-cells (human) (UniProt Q495A1). Kind of assay: flow cytometry, anti-human IgG secondary antibody, Vδ1 γδ T-cells.
Chain of TIGIT on Vδ1 γδ T-cells (human) (Q495A1 22-244, stated change not applied): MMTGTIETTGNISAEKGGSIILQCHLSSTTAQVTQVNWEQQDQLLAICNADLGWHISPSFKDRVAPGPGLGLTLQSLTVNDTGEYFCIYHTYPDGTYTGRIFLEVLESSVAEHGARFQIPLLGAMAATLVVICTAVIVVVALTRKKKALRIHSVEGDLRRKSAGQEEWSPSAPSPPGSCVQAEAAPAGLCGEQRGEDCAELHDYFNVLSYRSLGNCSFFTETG
Assay [8] concerns the target TIGIT on activated CD8 T-cells (human) (UniProt Q495A1). Kind of assay: flow cytometry, anti-human IgG secondary antibody, activated CD8 T-cells.
In assay [9] the target is Recombinant human TIGIT (human) (UniProt Q495A1). Kind of assay: SPR (Reichert 4SPR), antibody on Protein A chip, antigen flown over.
Chain of Recombinant human TIGIT (human) (Q495A1 22-141 limits assumed): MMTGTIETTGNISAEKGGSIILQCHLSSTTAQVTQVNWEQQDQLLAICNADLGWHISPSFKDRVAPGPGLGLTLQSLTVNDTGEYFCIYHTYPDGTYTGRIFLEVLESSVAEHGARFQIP

Chain of TIGIT on activated CD8 T-cells (human) (Q495A1 22-244 limits assumed): as the sequence (Q495A1 22-244, stated change not applied) above

What is called EC50 (read off the curve) is the concentration at which the effect is half-maximal. Read a high EC50 (read off the curve) as weaker potency. Broadly, the Kd is the free concentration of one partner at which half of the binding sites on the other are occupied at equilibrium, for simple one-to-one binding. Take “Anti-FAPα monoclonal antibody (based on sibrotuzumab)”: the EC50 (read off the curve) in assay [1] was determined as 0.08 nM. For the same substance, in assay [2], the Kd was found to be 3.9 nM.

As for “Anti-OX40 antibody (based on pogalizumab)”, the EC50 (read off the curve) in assay [3] was determined as 0.1 nM. The dissociation constant (Kd) in assay [4] came out at 0.82 nM.

“Anti-PD-1 antibody (based on pembrolizumab)”: the figures for the EC50 (read off the curve) in [5] and in assay [6] were 0.1 nM and 0.2 nM, respectively.

For the substance “Anti-TIGIT antibody (based on tiragolumab)”, the results for the EC50 (read off the curve) in assay [7] and in assay [8] were 8 nM and 0.4 nM, respectively. Also, the Kd in [9] amounted to 0.3 nM.

The values are drawn from patent publication US20230028110A1.
